Measured values taken from US7947279B2, “Peptide having hydrolase activity” (The Trustees of Columbia University in the City of New York, priority 2005, dated 2011).
“Also recorded” adds a separate entry of the source.

What was measured:
[1] = tested on: ubiquitin-AMC; assay: Hydrolysis of ubiquitin-AMC by TAT fusion proteins; type: biochemical; details: 20 nM TAT fusion proteins
Experimental: Measurement of Hydrolase Activity: The hydrolase assay was performed as previously described (Nishikawa et al., 2003) with slight modifications. Briefly, hippocampal tissue was treated with tissue protein extraction reagent (T-PER; Pierce) containing freshly added EDTA-free protease inhibitors. Homogenate was centrifuged at 10,000 rpm for 5 min. Protein concentration was measured in the supernatant using the BCA protein assay reagent. In some experiments hydrolysis was initiated by adding 10 μl of 20 nM Uch-L1 or Uch-L3 (Boston Biochem). The hydrolase assay was performed using fluorogenic ubiquitin-7-amino-4-methylcoumarin (ubiquitin-AMC) (Boston Biochem) as a substrate. The substrate was diluted in assay buffer (50 mM Tris-HCL, 0.5 mM EDTA, 5 mM dithiothreitol and 0.1 mg/ml ovalbumin, pH 7.6). […] The reaction was monitored using a fluorescence spectrophotometer (CytoFluor Series 4000, ABI Inc) at 25° C. The free AMC fluorophore was excited at 380 nm and measured at 460 nm. Hydrolase activity was expressed as relative fluorescence intensity/min (Dang et al., 1998). In some experiments, hydrolysis was also measured on the soluble and insoluble fractions (FIG. 28D). In a group of experiments hydrolysis was measured by mixing ubiquitin-AMC with 20 nM TAT fusion proteins (FIG. 27C). […]

[2] = tested on: CA1-LTP in hippocampal slices; assay: CA1-LTP in hippocampal slices (theta-burst); type: cell-based, mouse; details: for Aβ-induced impairment of CA1-LTP (words): fusion protein 20 nM 1 hr, then plus Aβ 200 nM 20 min; for LTP in slices not treated with Aβ (words): fusion protein 20 nM, 1 hr, WT slices, 3 theta-burst trains
[3] = tested on: mice (WT and APP/PS1); assay: Contextual and cued fear conditioning; type: in vivo, mouse; details: 0.02-0.04 g/kg i.p.; 1, 7, 14 and 21 days after training
Experimental: Behavioral Studies: Fear conditioning was performed in a conditioning chamber as previously described (Bourtchuladze et al., 1994; Gong et al., 2004). For contextual and cued fear conditioning mice were placed in the conditioning chamber for 2 min before the onset of a discrete tone (CS) (a 30 sec sound at 2800 Hz and 85 dB). In the last 2 sec of the CS, mice were given a foot shock (US) of 0.50 mA for 2 sec through the bars of the floor. After the CS/US pairing, the mice were left in the conditioning chamber for another 30 sec and then placed back in their home cages. Freezing behavior, defined as the absence of all movement except for that necessitated by breathing, was scored using Freezeview software. To evaluate contextual fear learning, freezing was measured for 5 min in the chamber in which the mice were trained 24 hrs after training. To evaluate cued fear conditioning, following contextual testing, the mice were placed in a novel context (triangular cage with smooth flat floor and with vanilla odorant) for 2 min (pre-CS test), after which they were exposed to the CS for 3 min (CS test), and freezing was measured. To evaluate the contextual fear over time, mice were placed for 5 min in the chamber in which the mice were trained 7- 14- 21-days after training. Sensory perception of the shock was determined through threshold assessment. Each animal was placed individually into the conditioning chamber. […] Animal behavior was evaluated for the first visible response to the shock (flinch), the first extreme motor response (run/jump), and the first vocalized distress (scream). Threshold to flinching, jumping, and screaming was quantified for each animal by averaging of the shock intensity at which each animal manifested a behavioral response of that type to the foot shock. Visual, motor, and motivation skills were also tested with visible platform training by measuring the time and the speed to reach a visible platform placed within a pool filled with water (Gong et al., 2004). Both time to reach the platform and swimming speed were recorded and analyzed with a video tracking system (HVS-2020, HVS Image, UK). No difference was observed among different groups of mice in the experiments in which fear conditioning was tested both in the presence of LDN and TAT fusion proteins. To decide the time of administration of LDN, experiments were performed in which the inhibitor was injected intra-peritoneally at different intervals (4 hrs before, 1 hr before, 1 hr after and 4 hrs after) from the electric shock. During the training phase, no difference was found in the freezing of LDN- or vehicle-injected mice.

[4] = tested on: SY5Y neuroblastoma cells transfected with a degron CL1-GFP expression vector; assay: Proteasome reporter assay (GFP^u); type: cell-based, human; details: substance alone
Experimental: Proteasome reporter assays. In this cell line, human neuroblastoma SH-SY5Y cells were permanently transfected with reporter construct consisting of green fluorescent protein (GFP) conjugated at its C-terminus to a short degron sequence (CL-1) (Gilon et al., 1998). […] The SY5Y-GFP^u cells were grown in 1×DMEM (Invitrogen) supplemented with 15% fetal bovine serum (JRH), 1× penicillin/streptomycin (Gibco). After indicated treatments, GFP^u concentrations were assayed by densitometric analysis of immunoblots of total protein extracts (10 ug/lane) using monoclonal GFP antibodies (Santa Cruz Biotechnology) and visualized with HRP-conjugated secondary antibodies and ECL (Pierce). Loading equalization was normalized by probing blots with anti-ERK antibodies (Santa Cruz Biotechnology).

[5] = tested on: phospho-CREB at Ser-133; assay: Phospho-CREB (Ser-133) Western blot in hippocampal cultures; type: cell-based, rat
Experimental: Western Blotting: Protein levels were assessed using standard procedures. Protein extraction was performed using buffer with and without detergent. For the extraction of protein using detergent, hippocampal tissues and cultured hippocampal neurons (5 DIV) were homogenized in RIPA buffer (50 mM Tris-HCl pH 7.4, 1% Triton X-100, 1% sodium deoxycholate, 0.1% SDS, 150 mM sodium chloride, 10 mM sodium fluoride, 30 mM sodium pyrophosphate, 50 mM sodium orthovanadate) containing 1× complete protease inhibitor (Roche) and 1 mM phenylmethylsulfonyl fluoride (PMSF). For extraction of proteins without detergent, hippocampal extracts were homogenized with disposable dounce homogenizers in buffer A, containing 10 mM HEPES pH 7.3, 300 mM sucrose, protease 1× complete protease inhibitor (Roche) and PMSF. After centrifugation at 10,000×g supernatant proteins were resolved on a 8% or 4-20% gradient Tris-Glycine gel, transferred onto PVDF or nitrocellulose membrane and blocked in 5% skim milk in PBS-Tween 0.1% (PBS-T). Membranes were probed with primary antibodies, and after washing with PBS-T incubated with an appropriate HRP-conjugated secondary antibody. The following antibodies were used: mouse monoclonal anti-ubiquitin (Chemicon), rabbit polyclonal anti-pCREB (Upstate Biotech.), rabbit polyclonal anti-PKA-RIIα (Santa Cruz Biotech. Inc), mouse monoclonal anti-Uch-L1 (Novocastra), monoclonal mouse anti-HA (Santa Cruz Biotech. Inc), and anti-PKA IIα. Detection was performed using HRP-conjugated secondary antibodies (Pierce, Rockford, Ill.). To control loading and transfer, protein immunoreactivities were normalized against total extracellular signal-regulated protein kinases (ERK1/2) levels with a rabbit analyzed using a rabbit polyclonal anti-ERK1/2 antibody (Cell Signaling Technology, Inc). NIH IMAGE was used to analyze the scanned blots and quantify the intensity of the protein signals.
Preparation of Cell Cultures. Hippocampal cell cultures were prepared as previously described (Vitolo et al., 2002). In cell culture experiments fetuses at embryonic day 18 from timed pregnant Sprague-Dawley rats (Taconic Farms) were used. Fetuses were sacrificed and the hippocampi removed. Neurons were then dissociated, plated on 6 well-plates coated with poly-L-lysine and maintained in a defined serum-free medium containing minimum essential medium supplemented with N-2, glucose, albumin, pyruvic acid, antibiotics and antimycotics. […] 5 DIV cells were used for the experiments.

B1: TAT-HA-Uch-L1(C90S): mutant TAT-HA-Uch-L1 construct, C90S (hydrolase site), made by site-directed mutagenesis (protein, UniProt P09936 1-220, looked up, variant C90S)
Ubiquitin carboxyl-terminal …: MQLKPMEINPEMLNKVLSRLGVAGQWRFVDVLGLEEESLGSVPAPACALLLLFPLTAQHENFRKKQIEELKGQEVSPKVYFMKQTIGNSSGTIGLIHAVANNQDKLGFEDGSVLKQFLSETEKMSPEDRAKCFEKNEAIQAAHDAVAQEGQCRVDDKVNFHFILFNNVDGHLYELDGRMPFPVNHGASSEDTLLKDAAKVCREFTEREQGEVRFSAVALC
modifications: fused to HIV TAT transduction peptide and HA tag
notes: mutant TAT-HA-Uch-L1 construct, C90S (hydrolase site), made by site-directed mutagenesis
[1]
  Uch (hydrolase) activity of TAT constructs (words): little or no activity
[1]; listed as TAT-HA-Uch-L1 (C90S)
  Uch (hydrolase) activity of TAT constructs (words): inactive
[2]
  Aβ-induced impairment of CA1-LTP (words): failed to protect against LTP suppression; also recorded: failed to reverse
  LTP in slices not treated with Aβ (words): severely impaired potentiation
[2]; listed as TAT-HA-Uch-L1(C90S) peptide
  Aβ-induced impairment of CA1-LTP (words): did not protect against LTP suppression
[2]; listed as Mutant (C90S) TAT-Uch-L1 fusion protein
  LTP in slices not treated with Aβ (words): reduces LTP
[2]; listed as mutant (C90S) TAT-Uch-L1
  LTP in slices not treated with Aβ (words): dramatically reduced LTP
[2]; fusion protein alone, no Aβ
  amounts of potentiation: 152.38±10.90%
  decrease in potentiation compared to vehicle or TAT-HA-iUch-L1: ~60%
[2]; non-tetanized slices
  baseline transmission in slices without tetanic stimulation: Neither TAT-HA-Uch-L1(C90S) nor TAT-HA-Uch-L1(S18Y) affected baseline; also recorded: did not affect basal transmission
[3]
  contextual learning in WT mice: impaired both contextual learning and its decay; also recorded: worsened contextual conditioning performance
[4]
  GFP^u levels: increase in GFP^u
[5]; cultures not treated with Aβ
  glutamate-induced increase in CREB phosphorylation: blocked the glutamate-induced increase in CREB phosphorylation
[5]; fusion protein 100 nM, 3 μM Aβ 24 hrs, 50 μM glutamate 15 min
  effect of Aβ on glutamate-induced CREB phosphorylation (words): did not allow the enhancement of phospho-CREB
